From paper PMC4669440

Assay: micro-CT of femur
Conditions: glycan lost; control: WT mice

B1: Dentin matrix protein 1 (DMP1): S89G (protein)
parent chain: MKTVILLVFLWGLSCALPVARYHNTESESSEERTGDLAGSPPPPTNSESSEESQASPEGQANSDHTDSSESGEELGYDRGQYRPAGGLSKSTGTGADKEDDEDDSGDDTFGDEDNDLGPEEGQWGGPSKLDSDEDSTDTTQSSEDSTSQENSAQDTPSDSKDHDSEDEADSRPEAGDSTQDSESEEQRVGGGSEGESSHGDGSEFDDEGMQSDDPESTRSDRGHARMSSAGIRSEESKGDHEPTSTQDSDDSQSVEFSSRKSFRRSHVSEEDYRGELTDSNSRETQSDSTEDTASKEESRSESQEDTAESQSQEDSPEGQDPSSESSEEAGEPSQESSSESQEGVTSESRGDNPDNTSQAGDQEDSESSEEDSLNTFSSSESQSTEEQADSESNESLSLSEESQESAQDGDSSSQEGLQSQSASTESRSQESQSEQDSRSEEDSDSQDSSRSKEESNSTGSASSSEEDIRPKNMEADSRKLIVDAYHNKPIGDQDDNDCQDGY
For B1, the “other: bone material density” value was “increases”.
